Data as given in paper PMC12242769.

Key:
Assay in all cases: EMSA
[1] = system: TbLa RRM1Δ (Trypanosoma brucei); settings: native tRNA modifications except queuosine (from TbTGT2Δ cells); 50 mM HEPES pH 7.5, 1 mM MgCl2, 5 mM KCl; on ice 30 min; ~0.6 nM tRNA, 10 µl; 6% native PAGE
[2] = system: TbLa (wild type) (Trypanosoma brucei); settings: 1 mM Mg2+; apparent Kd from Hill fit; native tRNA modifications except queuosine (from TbTGT2Δ cells); 50 mM HEPES pH 7.5, 1 mM MgCl2, 5 mM KCl; on ice 30 min; ~0.6 nM tRNA, 10 µl; 6% native PAGE
[3] = system: TbLa LaMΔ (Trypanosoma brucei); settings: native tRNA modifications except queuosine (from TbTGT2Δ cells); 50 mM HEPES pH 7.5, 1 mM MgCl2, 5 mM KCl; on ice 30 min; ~0.6 nM tRNA, 10 µl; 6% native PAGE

native mature tRNATyr lacking Q34
Kd [1]: 446 nM
Kd [2]: 216 nM
Kd [3]: 855 nM
